Measured values taken from US20110010785A1, “PRODUCTS AND THEIR USE FOR THE DIAGNOSIS, PREVENTION AND/OR CARE OF HUMAN AND/OR ANIMAL PATHOLOGIES CHARACTERISED BY THE ANOMALOUS DEPOSITION OF B-AMYLOID AND/OR AMYLOID-LIKE SUBSTANCE IN HUMAN AND/OR ANIMAL ORGANS AND TISSUES, AND SCREENING METHOD FOR DETERMINING THE RISK OF SUCH PATHOLOGIES” (Fondazione I.R.C.C.S Istituto Neurologico "Carlo Besta", priority 2007, published 2011).

Target: T1, wild-type Aβ1-40 (Homo sapiens, UniProt P05067)
T1 construct: lipophile probe (4-dodecylaminocarbonylfluorene-9-ylmethylsuccinimidyl carbonate), non-protein purification handle (N); made in house; host or cells: chemical solid phase synthesis (no expression host)
Experiment: Inhibition of amyloidogenesis: hexapeptides co-incubated with wild-type Aβ1-40 (ultrastructural and histochemical study)
Format: biochemical
Conditions: for effect on fibrillogenesis of Aβ1-40: co-incubated with wild-type Aβ1-40, equimolar or in excess (hexapeptide:Aβ1-40=5:1)
Description: For the ultrastructural investigation, 5 μl of suspension of wild-type Aβ1-40, mutated Aβ1-40 and their equimolar mixture were drawn at incubation times in the range of 1 hour-20 days, deposited on nickel screen covered with Formvar-Carbon for 5 minutes, negatively coloured with an over-saturated solution of uranyl and observed under electronic microscope (EM109 Zeiss). On the twentieth day of incubation, aliquots of the samples were centrifuged at 15,000 g for 15 minutes. The pellets thus obtained were fixed in 2.5% glutaraldehyde in phosphate buffer, pH 7.4, post-fixed in 1% osmium tetroxide, dehydrated in acetone and included in epoxy rein (Spurr, Electron Microscopy Sciences). Ultrafine sections (500 Å) were collected on copper screens, coloured with uranyl acetate and lead citrate and observed under the electronic microscope.
In order to verify if and in what measure the aggregates were constituted by amyloid, 5 μl of solution of each sample, for the different incubation times, was collected on polylysinated slides (Bio-Optical), coloured with Congo Red and examined with polarised light microscope (Nikon Eclipse E-800).
The two hexapeptides were co-incubated with wild-type Aβ1-40 at equimolar concentration or in excess (hexapeptide:Aβ1-40=5:1). The mixtures were prepared for the ultrastructural and histochemical study as described in example 2.

T1 sequence (P05067 672-711): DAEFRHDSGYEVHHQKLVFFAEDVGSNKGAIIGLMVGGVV

Row | Substance | effect on fibrillogenesis of Aβ1-40 | inhibitory activity on fibrillogenesis relative to wild-type hexapeptide (co-incubated with wild-type Aβ1-40, equimolar or 5:1)
1 | DAEFRH | inhibit the fibrillogenesis of Aβ1-40 | –
2 | DVEFRH [synthetic peptide, first six amino acids of Aβ with valine in place of alanine in position 2] | inhibit the fibrillogenesis of Aβ1-40 | more active than the corresponding wild-type
